Results taken from patent US20230280353A1, “DETECTION SYSTEM OF INTERACTION BETWEEN KNOWN MOLECULES AND PROTEINS BASED ON COVALENT CONNECTION AND IDENTIFICATION OR VERIFICATION METHOD THEREOF” (SHANGHAI JIAO TONG UNIVERSITY, priority 2021, published 2023).

B1: CobB protein (biotin-modified, with Avi tag) (enzyme)
chain: MLSRRGHRLSRFRKNKRRLRERLRQRIFFRDKVVPEAMEKPRVLVLTGAGISAESGIRTFRAADGLWEEHRVEDVATPEGFDRDPELVQAFYNARRRQLQQPEIQPNAAHLALAKLQDALGDRFLLVTQNIDNLHERAGNTNVIHMHGELLKVRCSQSGQVLDWTGDVTPEDKCHCCQFPAPLRPHVVWFGEMPLGMDEIYMALSMADIFIAIGTSGHVYPAAGFVHEAKLHGAHTVELNLEPSQVGNEFAEKYYGPASQVVPEFVEKLLKGLKAGSIA
notes: also called biotinylated CobB protein

Tests used:
[1] = target: CobB protein (biotin-modified, with Avi tag) (UniProt P75960); assay: BLI; series 1000, 500, 250, 125, 62.5 nM; the filing does not say which partner was on the sensor
[2] = target: CobB protein (biotin-modified, with Avi tag) (UniProt P75960); assay: BLI; series 1000, 500, 250, 125 nM; the filing does not say which partner was on the sensor
ETHR protein = target: T1, ETHR protein (Mycobacterium tuberculosis, UniProt P9WMC1); type: binding
T1 construct: Flag (C); 6×His (C); made in house; host or cells: E. coli BL21 (DE3), pET28a

[3] = system: CSP series proteins (CSP1, CSP2, CSP3); assay: SPIDER verification (Western blot) of c-di-GMP and CSP series short peptides; type: binding; conditions: 2 μM, CSP proteins 5 μM; compared with c-di-GMP without biotinylation
Method: The N-terminal sequences encoding CSP1, CSP2 and CSP3 were all labeled with Flag tags and constructed on PET32a vector, which was fused with thioredoxin for expression. The recombinant vector was transformed into E. coli BL21 (DE3) strain. The CSP1, CSP2 and CSP3 proteins were obtained by adding IPTG and inducing at 37° C. for 4h when OD600 was about 0.6 in 1 L of bacteria medium. The CSP1, CSP2 and CSP3 proteins were purified by nickel column.
After that, PafA7KR (1 μM) and ATP (10 mM) were added into the system and incubated at 30° C. for 6 h. Flag antibody was used for Western blot analysis.

[4] = Capture and mass spectrometry identification of m6A RNA interacting proteins; type: binding; conditions: 1 μM bait, HEK293T cell lysate
Method: HEK293T normal cells and SLIAC (Lys/Arg relabeled) cells were cultured and lysed with Thermo Fisher 78501 M-PER® Mammalian Protein Extraction to obtain cell lysates.
The reaction system was prepared as follows: 1 μM biotinylated m6A RNA, 5 μM SAm-Pup^E, 0.5 μM PafA7KR enzyme, 5 mM ATP, 5 mg HEK293T cell lysate or SILAC cell lysate were added, and buffer (50 mM Tris 8.0, 0.5 M NaCl, 20 mM MgCl2, 10% (v/v) Glycerol, 10 mM imidazole) was lysed to 5 ml. The system was incubated at 30° C. for 6h, and biotin agarose beads were added for incubation overnight at 4° C. Wash buffer 1 (8M urea, 50 mM Tris 8.0, 200 mM NaCl, 0.2% SDS), Wash Buffer 2 (8M urea, 50 mM Tris 8.0, 200 mM NaCl, 2% SDS), Wash buffer 3 (8M urea, 50 mM Tris 8.0, 200 mM NaCl), Wash buffer 4 (50 mM Tris 8.0, 0.5 mM EDTA, 1 mM DTT), Wash buffer 5 (50 mM NH4HCO3) were incubated at room temperature for 5 min and centrifuged at 1500 rpm for 4 min. The biotin agarose beads were transferred to a 1.5 mL centrifuge tube, centrifuged in a horizontal centrifuge with 1 mL Wash buffer 5, 1500 rpm for 4 min and washed repeatedly with Wash buffer 5 to obtain the reaction product. Trypsin was lysed and identified by mass spectrometry.

[5] = system: YTDHF1, YTDHF2, YTDHF3 proteins; assay: SPIDER verification (immunoblot) of biotinylated m6A RNA with YTDHF1, YTDHF2, YTDHF3; type: binding; conditions: 0.5 μM biotinylated m6A RNA; GFP antibody
From the text: The sequences of YTDHF1-GFP, YTDHF2-GFP and YTDHF3-GFP were constructed on pCDNA3.1 vector and transfected into HEK293T cells with Lipofectamine 2000 (ThermoFisher 118668).
Immunoblot analysis of GFP antibody was used.

VacB = target: T2, VacB (UniProt P21499 1-813); assay: BLI; series 1000, 500, 250, 125, 62.5 nM; the filing does not say which partner was on the sensor
T2 sequence: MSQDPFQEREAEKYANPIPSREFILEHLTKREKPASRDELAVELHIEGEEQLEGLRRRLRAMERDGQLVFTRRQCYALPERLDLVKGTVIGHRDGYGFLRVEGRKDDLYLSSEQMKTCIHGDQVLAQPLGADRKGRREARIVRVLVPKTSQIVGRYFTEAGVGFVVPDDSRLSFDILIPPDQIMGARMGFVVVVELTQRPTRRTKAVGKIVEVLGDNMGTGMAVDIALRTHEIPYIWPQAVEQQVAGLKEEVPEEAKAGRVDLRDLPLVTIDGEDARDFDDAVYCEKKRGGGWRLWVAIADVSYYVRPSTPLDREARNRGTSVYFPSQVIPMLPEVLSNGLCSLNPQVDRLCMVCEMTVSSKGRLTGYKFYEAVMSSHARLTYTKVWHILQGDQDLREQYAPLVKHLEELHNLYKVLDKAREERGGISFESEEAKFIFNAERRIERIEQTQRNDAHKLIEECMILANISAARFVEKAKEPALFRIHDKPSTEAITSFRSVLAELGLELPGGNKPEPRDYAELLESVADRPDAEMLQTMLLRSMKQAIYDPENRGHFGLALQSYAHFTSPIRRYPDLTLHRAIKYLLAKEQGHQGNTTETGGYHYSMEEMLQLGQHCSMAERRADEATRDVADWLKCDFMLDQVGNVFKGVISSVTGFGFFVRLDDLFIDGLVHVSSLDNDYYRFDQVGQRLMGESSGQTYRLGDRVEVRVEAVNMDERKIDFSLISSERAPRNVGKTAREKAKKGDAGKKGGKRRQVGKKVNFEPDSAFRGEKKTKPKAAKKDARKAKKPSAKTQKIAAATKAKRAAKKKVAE

VacB, P21499 = target: T3, VacB, P21499
T3 chain: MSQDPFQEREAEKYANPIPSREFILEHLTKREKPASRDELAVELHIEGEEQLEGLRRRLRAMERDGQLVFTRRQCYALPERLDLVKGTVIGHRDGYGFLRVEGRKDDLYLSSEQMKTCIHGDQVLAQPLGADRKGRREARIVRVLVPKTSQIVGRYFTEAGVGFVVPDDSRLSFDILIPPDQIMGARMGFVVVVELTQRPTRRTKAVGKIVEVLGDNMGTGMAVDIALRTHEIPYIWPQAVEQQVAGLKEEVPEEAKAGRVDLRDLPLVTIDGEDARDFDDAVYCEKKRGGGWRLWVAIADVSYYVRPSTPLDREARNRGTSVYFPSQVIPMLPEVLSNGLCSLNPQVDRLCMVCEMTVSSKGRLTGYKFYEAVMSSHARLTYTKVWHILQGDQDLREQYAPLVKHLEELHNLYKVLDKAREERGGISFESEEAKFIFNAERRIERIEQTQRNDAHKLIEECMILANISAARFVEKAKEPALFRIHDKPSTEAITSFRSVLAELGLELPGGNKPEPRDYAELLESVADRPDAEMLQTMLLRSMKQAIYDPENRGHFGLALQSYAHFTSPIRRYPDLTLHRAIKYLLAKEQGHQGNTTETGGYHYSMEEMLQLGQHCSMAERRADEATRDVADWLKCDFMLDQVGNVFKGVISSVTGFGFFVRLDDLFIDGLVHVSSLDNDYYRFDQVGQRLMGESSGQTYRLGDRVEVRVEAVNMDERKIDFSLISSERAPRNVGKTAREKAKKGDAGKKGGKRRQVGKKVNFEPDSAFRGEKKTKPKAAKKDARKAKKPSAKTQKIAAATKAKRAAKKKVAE

DksA, P0ABS1 = target: T4, DksA, P0ABS1
T4 chain: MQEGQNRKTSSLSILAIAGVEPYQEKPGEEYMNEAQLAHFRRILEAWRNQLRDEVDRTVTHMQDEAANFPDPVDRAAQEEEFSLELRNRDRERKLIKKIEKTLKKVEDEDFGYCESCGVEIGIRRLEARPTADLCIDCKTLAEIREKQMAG

[6] = target: CobB interacting proteins found and purified (tested by BLI, FIGS. 8B-8F); assay: BLI
VacB and DksA proteins = assay: CobB deacetylation of VacB and DksA (Western blot, acetylation antibody); type: biochemical; conditions: VacB and DksA co-incubated with CobB
Method: CobB has the activity of deacetylase. CobB was co-incubated with VacB and DksA proteins, and the acetylation level of protein was detected by Western blot analysis of acetylation antibody.

CheAs protein = type: binding; conditions: CheZ 0, 0.1, 0.2, 0.4 μM; wild-type CheAs 0.2 μM
[7] = Biotin binding activity of SAm-Pup^E (SDS-PAGE); conditions: incubated with biotin at room temperature 1 hour
Method: The SAm-Pup^E protein and wild-type streptavidin (SA) purified in step 1 were mixed with biotin (A600078) and incubated at room temperature for 1 hour, and then detected by SDS-PAGE.

[8] = Method: The SA-Pup purified from Step 1 was added into Buffer R (50 mM Tris, PH 7.5, 100 mM NaCl, 20 mM MgCl2, 10% (v/v) glycerol) and high salt buffers (50 mM Tris-HCl, PH 8.0, 8 M urea, 15 mM DTT, 1 mM EDTA, PH 8.0) containing 8 M urea, respectively. After mixing, the supernatant was absorbed, and then biotin agarose beads were added to rotate and incubate at room temperature for 1 hour, and then the supernatant was absorbed. The supernatant was detected by SDS-PAGE.
[9] = target: B1; assay: BLI; series 7500, 5000, 2500, 1250 nM; the filing does not say which partner was on the sensor

Molecule GldA has a Kd [1] of 59.4 nM and a koff [1] of 0.000295 s⁻¹.

RraA showed a Kd [2] of 24.6 nM and a koff [2] of 0.000201 s⁻¹.

In the case of biotinylated c-di-GMP, the “complex band of ETHR and SAm-Pup^E monomer” value (ETHR protein) is reported as “the detected complex bands become thicker” and the “migration of CSP series protein bands” value [3] is reported as “migrated significantly”.

For `Nc1nc2c(ncn2[C@@H]2O[C@@H]3COP(=O)(O)O[C@H]4[C@@H](O)[C@H](n5cnc6c(=O)[nH]c(N)nc65)O[C@@H]4COP(=O)(O)O[C@H]3[C@H]2O)c(=O)[nH]1` [c-di-GMP], the “complex bands with excessive non-biotinylated competitor” value (ETHR protein; excessive non-biotinylated c-di-GMP added to compete with biotinylated c-di-GMP) was “the complex bands were basically unchanged”.

In the case of “biotinylated m6A RNA: 5′-terminal biotin-modified m6A RNA, sequence CGUCUCGGCUCGGCUGCU (SEQ ID NO: 8) (5' biotin, m6A modification, chemistry not fully specified)”, the “binding proteins obtained by mass spectrometry” value [4] is reported as “YTDHF1, YTDHF2 and YTDHF3” and the “protein-SAm-Pup^E complex bands” value [5] is reported as “presence of complex bands only in the presence of biotinylated m6A RNA”.

Work on RoxA yielded a Kd [1] of 103 nM and a koff [1] of 0.00124 s⁻¹.

In the case of B1, the Kd (VacB) is reported as 156 nM, the koff (VacB) is reported as 0.00163 s⁻¹ and the “acetylation level of VacB (IB: Ac-K), with and without CobB” value (VacB, P21499) is reported as “Ac-K band clear without CobB, almost gone with CobB; His (VacB) bands alike in both lanes; biotin-CobB band only in the + lane”. For the same molecule, the “acetylation level of protein detected by Western blot analysis of acetylation antibody” value (VacB, P21499) was “the acetylation level of a group of proteins added with CobB decreased obviously”, the “acetylation level of DksA (IB: Ac-K), with and without CobB” value (DksA, P0ABS1) was “Ac-K band seen without CobB, not seen with CobB; His (DksA) bands alike in both lanes; biotin-CobB band only in the + lane” and the “acetylation level of protein detected by Western blot analysis of acetylation antibody” value (DksA, P0ABS1) was “the acetylation level of a group of proteins added with CobB decreased obviously”. It also gave a Kd [6] of 25 to 772 nM.

B2: CobB: Biotin-modified CobB protein with Avi tag; has deacetylase activity (protein)
chain: MLSRRGHRLSRFRKNKRRLRERLRQRIFFRDKVVPEAMEKPRVLVLTGAGISAESGIRTFRAADGLWEEHRVEDVATPEGFDRDPELVQAFYNARRRQLQQPEIQPNAAHLALAKLQDALGDRFLLVTQNIDNLHERAGNTNVIHMHGELLKVRCSQSGQVLDWTGDVTPEDKCHCCQFPAPLRPHVVWFGEMPLGMDEIYMALSMADIFIAIGTSGHVYPAAGFVHEAKLHGAHTVELNLEPSQVGNEFAEKYYGPASQVVPEFVEKLLKGLKAGSIA
With B2 the “acetylation level of protein” value (VacB and DksA proteins) was “decreased obviously”.

B3: CheZ: biotin-modified protein CheZ with Avi tag (protein)
chain: MMQPSIKPADEHSAGDIIARIGSLTRMLRDSLRELGLDQAIAEAAEAIPDARDRLYYVVQMTAQAAERALNSVEASQPHQDQMEKSAKALTQRWDDWFADPIDLADARELVTDTRQFLADVPAHTSFTNAQLLEIMMAQDFQDLTGQVIKRMMDVIQEIERQLLMVLLENIPEQESRPKRENQSLLNGPQVDTSKAGVVASQDQVDDLLDSLGF
In the case of B3, the “complex bands of CheAs and SAm-Pup^E monomer” value (CheAs protein) is reported as “the detected complex bands become thicker”.

B4: SAm-Pup^E: mutated streptavidin-Pup tetramer, amino acid sequence SEQ ID NO: 5 (protein)
chain: MGAEAGITGTWYNQLGSTFIVTAGADGALTGTYESAVGNAESRYVLTGRYDSAPATDGSGTALGWTVAWRNNYRNAHSATTWSGQYVGGAEARINTQWLLTSGTTEANAWRSTLVGHDTFTRVRPSAASGGGGGSGSHHWGGGGSLTEETDDLLDEIDDVLEENAEDFVRAYVQRGGE
modifications: tetramer; The sequence is synthesized.
With B4 the biotin-binding activity [7] was “the same biotin-binding activity as wild-type streptavidin” and the “stability of binding to biotin agarose beads” value [8] was “can still bind stably in high salt buffer”.

B5: DksA (other)
chain: MQEGQNRKTSSLSILAIAGVEPYQEKPGEEYMNEAQLAHFRRILEAWRNQLRDEVDRTVTHMQDEAANFPDPVDRAAQEEEFSLELRNRDRERKLIKKIEKTLKKVEDEDFGYCESCGVEIGIRRLEARPTADLCIDCKTLAEIREKQMAG
For B5, the Kd [9] was 772 nM and the koff [9] was 0.00167 s⁻¹.
